In US20250043302A1, “MUTATED HYDROXYPHENYLPYRUVATE DIOXYGENASE POLYPEPTIDE, AND CODING GENE AND USE THEREOF” (BEIJING DABEINONG BIOTECHNOLOGY CO., LTD., priority 2021, published 2025):

How the values were obtained:
Format in all cases: in vivo
[1] = tested on: Arabidopsis thaliana T1 plants; experiment: Topramezone tolerance of transgenic Arabidopsis thaliana T1 plants (spray, bleached leaf area grade, damage score); conditions: 7 DAT, Table 4; for Classification and statistics of the grade of pesticide damage: Grade 0 / Classification and statistics of the grade of pesticide damage: Grade 1 / Classification and statistics of the grade of pesticide damage: Grade 2 / Classification and statistics of the grade of pesticide damage: Grade 3: number of plants; for Scores: pesticide damage score 0-100
Outline: (§1)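 Read-out: per-plant damage grade 0–3 from proportion of bleached leaf area at 7 DAT (1 <50%, 2 >50%, 3 100%). Plants were T1 transformants, glufosinate-selected, plus wild-type CK, sprayed 18 days post-sowing. Rates: topramezone 25–200, isoxaflutole 35–280, mesotrione 52.5–420 g ai/ha.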

[2] = tested on: Arabidopsis thaliana T1 plants; experiment: Isoxaflutole tolerance of transgenic Arabidopsis thaliana T1 plants (spray, bleached leaf area grade, damage score); parameters: Scores (pesticide damage): scale not given here; conditions: spray, Arabidopsis thaliana T1 plants; for Classification and statistics of the grade of pesticide damage: Grade 0 (number of plants) / Classification and statistics of the grade of pesticide damage: Grade 1 (number of plants) / Classification and statistics of the grade of pesticide damage: Grade 2 (number of plants) / Classification and statistics of the grade of pesticide damage: Grade 3 (number of plants): 16 plants
Outline: as §1

[3] = tested on: Arabidopsis thaliana T1 plants; experiment: Mesotrione tolerance of transgenic Arabidopsis thaliana T1 plants (spray, bleached leaf area grade, damage score); parameters: Scores: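 damage score 0-100 computed as Σ(N×S)/(T×M)×100 over grades 0-3 with higher meaning more damage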; conditions: Arabidopsis thaliana T1 plants; for Grade 0 (classification and statistics of the grade of pesticide damage; number of plants) / Grade 1 (classification and statistics of the grade of pesticide damage; number of plants) / Grade 2 (classification and statistics of the grade of pesticide damage; number of plants) / Grade 3 (classification and statistics of the grade of pesticide damage; number of plants): 16 plants
Outline: as §1

[4] = isoxaflutole 35 g ai/ha (0.5x field concentration)
[5] = isoxaflutole 70 g ai/ha (1x field concentration)

B1: GmHPPDm-F372A-F383W-02: nucleotide sequence encoding Glycine max HPPD with F372A+F383W; vector DBN11749 (nucleic acid)
DNA: ATGCCAATGTACACACCATCGCTCTCCGCCCCTTCTTCCAACCATATTCAGCCATCCGTGACTCTGCCTCTCTACATCACAACCACCAAGTTGAACCTGAAGCAGCAGCACCATACGACTCCTATGCCTATACCCATGTGCAATGAGATCCAAGCACAGGCTCAGGCACAAGCTCAACCCGGATTCAAACTCGTGGGATTCAAGAACTTCGTCCGTACCAATCCAAAATCTGACCGCTTCCAGGTGAACAGATTCCACCACATAGAGTTTTGGTGTACTGATGCAACGAATGCTTCGAGGAGGTTTTCATGGGGCTTAGGCATGCCGATTGTAGCAAAGTCAGACCTTTCTACAGGGAACCAAATTCATGCAAGCTATCTGCTCCGCTCAGGTGATTTGTCTTTCTTGTTCTCAGCTCCATATTCTCCATCATTATCTGCTGGGTCATCAGCAGCATCTAGTGCGTCGATCCCTAGCTTTGATGCCGCCACCTGCCTCGCCTTCGCCGCCAAACATGGATTTGGTGTTCGCGCCATTGCTCTTGAGGTTGCCGATGCCGAGGCTGCTTTTAGCGCCTCCGTCGCCAAGGGAGCTGAGCCTGCGTCACCTCCTGTTCTTGTTGATGATCGAACTGGTTTTGCTGAAGTGCGTCTTTACGGCGACGTGGTGCTCAGATATGTTAGTTACAAGGATGCTGCTCCTCAAGCGCCGCACGCTGATCCTTCAAGATGGTTTCTTCCGGGGTTTGAGGCCGCTGCTAGTTCATCTTCCTTCCCGGAGTTGGATTACGGCATACGGCGGCTTGACCATGCTGTCGGCAATGTTCCTGAGCTTGCTCCGGCGGTACGGTACTTGAAAGGTTTCTCCGGGTTCCATGAATTTGCAGAGTTCACGGCGGAAGATGTTGGAACAAGTGAAAGCGGATTGAATTCTGTTGTTTTGGCCAACAACAGTGAAACTGTTCTGCTCCCCCTCAATGAACCAGTTTATGGCACAAAGCGCAAGAGCCAGATTGAAACATATCTCGAGCACAATGAAGGCGCCGGCGTCCAGCATCTTGCTTTGGTGACTCATGATATCTTCACAACACTTAGGGAGATGAGGAAGAGGAGTTTCCTCGGCGGGTTTGAATTCATGCCCAGTCCCCCGCCGACCTACTATGCAAATCTGCACAACAGGGCTGCAGATGTGCTGACTGTAGACCAGATCAAGCAATGTGAAGAACTTGGAATTTTAGTGGATAGAGACGACCAAGGTACACTACTTCAAATAGCCACCAAACCAGTCGGTGACAGACCAACAATTTGGATCGAGATTATACAAAGAATTGGATGCATGGTCGAGGATGAAGAAGGGAAGGTGTACCAGAAGGGAGCATGTGGTGGTTTTGGGAAAGGAAATTTTTCTGAGCTGTTTAAATCCATCGAGGAATATGAGAAAACCTTAGAAGCTAAAAGAACTGCATGA
modifications: GmHPPDm-F372A-F383W-02 Nucleotide Sequence
notes: vector DBN11749
- Classification and statistics of the grade of pesticide damage: Grade 0 ([1]; topramezone 25 g ai/ha (1×)): 9
- Classification and statistics of the grade of pesticide damage: Grade 1 ([1]; topramezone 25 g ai/ha (1×)): 7
- Classification and statistics of the grade of pesticide damage: Grade 2 ([1]; topramezone 25 g ai/ha (1×)): 0
- Classification and statistics of the grade of pesticide damage: Grade 3 ([1]; topramezone 25 g ai/ha (1×)): 0
- Classification and statistics of the grade of pesticide damage: Grade 0 ([1]; topramezone 100 g ai/ha (4×)): 5
- Classification and statistics of the grade of pesticide damage: Grade 1 ([1]; topramezone 100 g ai/ha (4×)): 6
- Classification and statistics of the grade of pesticide damage: Grade 2 ([1]; topramezone 100 g ai/ha (4×)): 4
- Classification and statistics of the grade of pesticide damage: Grade 3 ([1]; topramezone 100 g ai/ha (4×)): 1
- Scores ([1]; topramezone 25 g ai/ha (1×)): 15
- Scores ([1]; topramezone 100 g ai/ha (4×)): 35
- Resistance evaluation ([1]; topramezone 25 g ai/ha (1×)): highly
- Resistance evaluation ([1]; topramezone 100 g ai/ha (4×)): poorly
- Resistance evaluation [2, 4]: Highly
- Scores (pesticide damage) [2, 4]: 15
- Classification and statistics of the grade of pesticide damage: Grade 0 (number of plants) [2, 4]: 9
- Classification and statistics of the grade of pesticide damage: Grade 1 (number of plants) [2, 4]: 7
- Classification and statistics of the grade of pesticide damage: Grade 2 (number of plants) [2, 4]: 0
- Classification and statistics of the grade of pesticide damage: Grade 3 (number of plants) [2, 4]: 0
- Resistance evaluation [2, 5]: Poorly
- Scores (pesticide damage) [2, 5]: 40
- Classification and statistics of the grade of pesticide damage: Grade 0 (number of plants) [2, 5]: 4
- Classification and statistics of the grade of pesticide damage: Grade 1 (number of plants) [2, 5]: 6
- Classification and statistics of the grade of pesticide damage: Grade 2 (number of plants) [2, 5]: 5
- Classification and statistics of the grade of pesticide damage: Grade 3 (number of plants) [2, 5]: 1
- Resistance evaluation ([3]; mesotrione 52.5 g ai/ha): Moderately
- Scores ([3]; mesotrione 52.5 g ai/ha): 23
- Grade 0 (classification and statistics of the grade of pesticide damage; number of plants) ([3]; mesotrione 52.5 g ai/ha): 6
- Grade 1 (classification and statistics of the grade of pesticide damage; number of plants) ([3]; mesotrione 52.5 g ai/ha): 9
- Grade 2 (classification and statistics of the grade of pesticide damage; number of plants) ([3]; mesotrione 52.5 g ai/ha): 1
- Grade 3 (classification and statistics of the grade of pesticide damage; number of plants) ([3]; mesotrione 52.5 g ai/ha): 0
- Resistance evaluation ([3]; mesotrione 105 g ai/ha): Poorly resistant
- Scores ([3]; mesotrione 105 g ai/ha): 46
- Grade 0 (classification and statistics of the grade of pesticide damage; number of plants) ([3]; mesotrione 105 g ai/ha): 2
- Grade 1 (classification and statistics of the grade of pesticide damage; number of plants) ([3]; mesotrione 105 g ai/ha): 7
- Grade 2 (classification and statistics of the grade of pesticide damage; number of plants) ([3]; mesotrione 105 g ai/ha): 6
- Grade 3 (classification and statistics of the grade of pesticide damage; number of plants) ([3]; mesotrione 105 g ai/ha): 1
